Test results reported in the supplement of paper PMC10126150.
± gives the standard deviation of the averaged measurements.

Test system: ATP
Test: switch fluorescence ratio, 500 uM ATP over buffer (Cy3 cluster intensity, sum of 5 cycles each) (fold (ratio)); higher = stronger signal-on switching upon ATP binding; sequences stand for … in TCGTCGGCAGCGTCAGATGTGTATAAGAGACAGTTTTTTTTTTTTTTTTTTTTTTTTT…TC
Conditions: aptamer strand: ATP DNA aptamer (quencher-CACCTGGGGGAGTATTGCGGAGGAAGG + anchor), 100 nM annealed; ATP concentration: 500 uM
How it was run: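 Five buffer/ATP imaging cycles were run on Cy3-labelled switching-strand clusters on a modified Illumina MiSeq flow-cell, with NaOH stripping and re-annealing between cycles. In each cycle, clusters annealed to 100 nM quencher-labelled ATP aptamer were imaged in selection buffer, then after 15 min with 500 uM ATP at 22 °C. Per cluster, the fluorescence ratio is summed target-cycle over summed buffer-cycle Cy3 intensity, averaged per switch-domain sequence. Only clusters within 100-1000 RFU were kept.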
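Further: ATP exposure 15 min at 22 °C before imaging.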

| Sequence | switch fluorescence ratio |
| --- | --- |
| ATTATGCCTG | 1.06 ± 0.044 |
| ATTATGCTAT | 1.052 ± 0.0094 |
| ATTATGGTTA | 0.9884 ± 0.0097 |
| ATTATGTTCT | 1.01 ± 0.013 |
| ATTATTAAAT | 1.08 ± 0.18 |
| ATTATTAAGT | 0.987 ± 0.025 |
| ATTATTATGC | 0.97 ± 0.025 |
| ATTATTTACT | 1.018 ± 0.0017 |
| ATTATTTGTC | 1.01 ± 0.044 |
| ATTCAACGGG | 1.04 ± 0.013 |
| ATTCAAGGTT | 0.973 ± 0.024 |
| ATTCACCGGA | 1.031 ± 0.0044 |
| ATTCACTCGG | 1.38 ± 0.48 |
| ATTCAGTCAT | 0.9901 ± 0.0021 |
| ATTCATCATT | 1.003 ± 0.0043 |
| ATTCCCGGTT | 1.03 ± 0.022 |
| ATTCCGCCGA | 1.48 ± 0.08 |
| ATTCCGGCGG | 0.976 ± 0.015 |
| ATTCCTAGGG | 1.048 ± 0.0022 |
| ATTCCTCAGC | 2.39 ± 0.49 |
| ATTCCTGGGG | 1.05 ± 0.012 |
| ATTCCTTGGT | 1.03 ± 0.022 |
| ATTCGGGTGT | 1.151 ± 0.0081 |
| ATTCGGTTTT | 0.97 ± 0.013 |
| ATTCGTAGGG | 1.01 ± 0.012 |

| Sequence | switch fluorescence ratio |
| --- | --- |
| ATTCGTCGTC | 0.983 ± 0.077 |
| ATTCGTTTTA | 0.975 ± 0.013 |
| ATTCGTTTTT | 1 ± 0.021 |
| ATTCTCACGT | 1.06 ± 0.021 |
| ATTCTCCGGG | 1.18 ± 0.065 |
| ATTCTGATTG | 1.02 ± 0.033 |
| ATTCTGGGTT | 0.987 ± 0.032 |
| ATTCTGTAAT | 1.01 ± 0.017 |
| ATTCTTCTCA | 1.02 ± 0.028 |
| ATTCTTGGGT | 1 ± 0.075 |
| ATTCTTTGGC | 1.04 ± 0.097 |
| ATTGAAAAAG | 1.01 ± 0.025 |
| ATTGAAAAAT | 0.983 ± 0.012 |
| ATTGAAACGA | 1.08 ± 0.039 |
| ATTGAACCGG | 1.04 ± 0.012 |
| ATTGAAGATG | 0.971 ± 0.025 |
| ATTGACATGT | 1.03 ± 0.037 |
| ATTGACGGCA | 1.02 ± 0.032 |
| ATTGACGTAT | 1.07 ± 0.13 |
| ATTGACTCTT | 1.003 ± 0.0074 |
| ATTGAGGATG | 1.07 ± 0.17 |
| ATTGAGTCTG | 1.02 ± 0.047 |
| ATTGAGTGGC | 0.928 ± 0.026 |
| ATTGAGTGTG | 0.979 ± 0.022 |
| ATTGATTTCT | 1.012 ± 0.006 |

| Sequence | switch fluorescence ratio |
| --- | --- |
| ATTGCAGATC | 1.05 ± 0.058 |
| ATTGCATGAG | 1.004 ± 0.0014 |
| ATTGCGAATT | 1.02 ± 0.022 |
| ATTGCGCCCG | 1.032 ± 0.0088 |
| ATTGCGGGTA | 0.992 ± 0.042 |
| ATTGCTGTTT | 1.037 ± 0.0019 |
| ATTGGACAAT | 1.02 ± 0.032 |
| ATTGGAGGAT | 0.96195 ± 0.0005 |
| ATTGGAGGCT | 0.971 ± 0.075 |
| ATTGGAGGGG | 1.008 ± 0.0041 |
| ATTGGATAAT | 0.9967 ± 0.0091 |
| ATTGGCGTAT | 0.987 ± 0.026 |
| ATTGGCTACT | 0.987 ± 0.013 |
| ATTGGCTGGA | 0.96 ± 0.076 |
| ATTGGCTGTT | 0.997 ± 0.052 |
| ATTGGGACAG | 0.994 ± 0.031 |
| ATTGGGATGA | 0.976 ± 0.025 |
| ATTGGGCAGG | 1.04 ± 0.017 |
| ATTGGGCTGC | 0.977 ± 0.01 |
| ATTGGGGCGT | 0.977 ± 0.016 |
| ATTGGGGTTT | 1 ± 0.019 |
| ATTGGGTAT | 0.988 ± 0.021 |
| ATTGGGTCGT | 0.992 ± 0.021 |
| ATTGGTGAGG | 0.988 ± 0.032 |
| ATTGGTTAGG | 1.01 ± 0.028 |

| Sequence | switch fluorescence ratio |
| --- | --- |
| ATTGGTTTCT | 1.04 ± 0.074 |
| ATTGTAATTG | 0.993 ± 0.012 |
| ATTGTAGTGT | 1.01 ± 0.025 |
| ATTGTATGGG | 0.9744 ± 0.0071 |
| ATTGTCTCTA | 0.999 ± 0.032 |
| ATTGTGATTG | 0.997 ± 0.038 |
| ATTGTGTACT | 1 ± 0.031 |
| ATTGTTAAGC | 1.02 ± 0.075 |
| ATTGTTACGT | 0.998 ± 0.012 |
| ATTGTTCAAA | 1 ± 0.015 |
| ATTGTTGTTT | 0.981 ± 0.019 |
| ATTTAAAACC | 1.06 ± 0.015 |
| ATTTAAAAGT | 0.991 ± 0.037 |
| ATTTAAATAG | 0.993 ± 0.035 |
| ATTTAACGGT | 1.03 ± 0.022 |
| ATTTAAGTT | 1.0014 ± 0.00081 |
| ATTTAATTTT | 1.02 ± 0.019 |
| ATTTAGACGT | 0.974 ± 0.026 |
| ATTTAGGGGG | 0.966 ± 0.02 |
| ATTTAGTGAC | 1.02 ± 0.051 |
| ATTTAGTGGT | 1 ± 0.028 |
| ATTTATATAT | 1 ± 0.05 |
| ATTTATTTGC | 1.01 ± 0.022 |
| ATTTCGACAC | 1.0254 ± 0.001 |
| ATTTCGCCCG | 1.07 ± 0.037 |

| Sequence | switch fluorescence ratio |
| --- | --- |
| ATTTCGGCAC | 0.9959 ± 0.0091 |
| ATTTCGTGGG | 0.978 ± 0.023 |
| ATTTCTCAGG | 1.07 ± 0.017 |
| ATTTCTGTTT | 1 ± 0.015 |
| ATTTGAACAG | 0.978 ± 0.015 |
| ATTTGAATTA | 1.01 ± 0.034 |
| ATTTGCAATT | 1.03 ± 0.034 |
| ATTTGCAGCA | 1.02 ± 0.014 |
| ATTTGCCTGT | 0.982 ± 0.033 |
| ATTTGCGGTT | 0.9949 ± 0.0022 |
| ATTTGCTTTA | 1.02 ± 0.012 |
| ATTTGGAGGG | 0.969 ± 0.0034 |
| ATTTGGAGTC | 1 ± 0.018 |
| ATTTGGGAGT | 1 ± 0.025 |
| ATTTGGTGGG | 0.97 ± 0.05 |
| ATTTGTATCC | 0.994 ± 0.021 |
| ATTTGTATTC | 1.03 ± 0.031 |
| ATTTGTCAAG | 0.999 ± 0.016 |
| ATTTGTCAGA | 0.98 ± 0.015 |
| ATTTGTCCAA | 0.993 ± 0.028 |
| ATTTGTGATG | 0.994 ± 0.047 |
| ATTTGTTATT | 1.01 ± 0.024 |
| ATTTTAACGT | 1.01 ± 0.046 |
| ATTTTAAGTT | 0.99 ± 0.034 |
| ATTTTAATAG | 0.9909 ± 0.0056 |

| Sequence | switch fluorescence ratio |
| --- | --- |
| ATTTTACAGC | 1.03 ± 0.0074 |
| ATTTTACCAT | 1.04 ± 0.075 |
| ATTTTACGAA | 1.028 ± 0.0065 |
| ATTTTAGATC | 1.01 ± 0.034 |
| ATTTTAGCTG | 1.01 ± 0.046 |
| ATTTTAGGGT | 0.989 ± 0.022 |
| ATTTTAGTGC | 1.01 ± 0.053 |
| ATTTTATATT | 1.02 ± 0.032 |
| ATTTTATTTT | 1.01 ± 0.029 |
| ATTTTCGGCT | 0.99 ± 0.0036 |
| ATTTTCTCCG | 1.43 ± 0.63 |
| ATTTTCTTGC | 1 ± 0.038 |
| ATTTTGAACA | 1.019 ± 0.0062 |
| ATTTTGAAGA | 1.01 ± 0.032 |
| ATTTTGAATC | 0.973 ± 0.013 |
| ATTTTGAGAC | 0.995 ± 0.026 |
| ATTTTGAGGA | 1.02 ± 0.015 |
| ATTTTGAGGC | 1.02 ± 0.035 |
| ATTTTGCCGT | 1.02 ± 0.027 |
| ATTTTGGAGC | 0.999 ± 0.058 |
| ATTTTGGCAG | 0.99 ± 0.049 |
| ATTTTGGGGA | 1.005 ± 0.01 |
| ATTTTGGGGT | 1 ± 0.014 |
| ATTTTGGTTT | 0.989 ± 0.025 |
| ATTTTGTCGG | 0.968 ± 0.018 |

| Sequence | switch fluorescence ratio |
| --- | --- |
| ATTTTGTTTG | 0.994 ± 0.012 |
| ATTTTTACCT | 1.08 ± 0.19 |
| ATTTTTATGA | 0.967 ± 0.015 |
| ATTTTTCTTA | 1.007 ± 0.0045 |
| ATTTTTGATC | 1.02 ± 0.032 |
| ATTTTTGGCA | 0.995 ± 0.033 |
| ATTTTTGGGA | 0.981 ± 0.028 |
| ATTTTTGTAG | 1.01 ± 0.017 |
| ATTTTTTACG | 1.02 ± 0.031 |
| ATTTTTTCGT | 1.04 ± 0.036 |
| ATTTTTTGAG | 1 ± 0.034 |
| ATTTTTTGCC | 0.962 ± 0.052 |
| ATTTTTTTGC | 1.03 ± 0.029 |
| CAAAAAACGG | 1.13 ± 0.23 |
| CAAAAAAGGG | 1.02 ± 0.021 |
| CAAAAATGGC | 1.02 ± 0.011 |
| CAAAACCTGA | 1.2 ± 0.15 |
| CAAAACGGTT | 1.02 ± 0.048 |
| CAAAAGGGAG | 1.036 ± 0.01 |
| CAAAAGGGGT | 1.004 ± 0.0063 |
| CAAAAGTAGA | 0.991 ± 0.036 |
| CAAAAGTTGA | 1.01 ± 0.053 |
| CAAAATGTTC | 1.021 ± 0.0086 |
| CAAACGAGGT | 0.994 ± 0.026 |
| CAAACGCCGA | 1.103 ± 0.0045 |

| Sequence | switch fluorescence ratio |
| --- | --- |
| CAAAGAGCTT | 1 ± 0.028 |
| CAAAGATAGT | 0.996 ± 0.037 |
| CAAAGGAGGC | 1.01 ± 0.048 |
| CAAAGGGCAA | 1.11 ± 0.038 |
| CAAAGGGGCG | 0.975 ± 0.045 |
| CAAAGGGTTA | 0.9906 ± 0.0086 |
| CAAAGTTATA | 1.0129 ± 0.00033 |
| CAAATACGAT | 1.05 ± 0.04 |
| CAAATCAGGA | 1 ± 0.038 |
| CAAATGCATA | 1.08 ± 0.017 |
| CAAATGGGAC | 1.09 ± 0.061 |
| CAAATGGTGG | 1.02 ± 0.0022 |
| CAAATGTTAT | 1.02 ± 0.0088 |
| CAAATTTAAG | 0.982 ± 0.028 |
| CAAATTTGCT | 0.967 ± 0.022 |
| CAACAACATT | 1.07 ± 0.12 |
| CAACATCTCG | 0.993 ± 0.019 |
| CAACATTTTC | 1.03 ± 0.054 |
| CAACGAGGGG | 1.02 ± 0.039 |
| CAACGCGCGG | 0.995 ± 0.045 |
| CAACGGGTTT | 0.997 ± 0.051 |
| CAACTCTTTT | 0.998 ± 0.038 |
| CAACTGCAGC | 1.26 ± 0.049 |
| CAACTGGGGC | 1.06 ± 0.022 |
| CAACTGTTTT | 1.04 ± 0.1 |
